# Publication PMC5624674
# B1: unnamed (parent)
# chain 1: MKTLPVLPGQAASSRPSPVEIWQILLSRLLDQHYGLTLNDTPFADERVIEQHIEAGISLCDAVNFLVEKYALVRTDQPGFSACTRSQLINSIDILRARRATGLMTRDNYRTVNNITLGKYPEAK
# chain 2: MLKKFRGMFSNDLSIDLGTANTLIYVKGQGIVLNEPSVVAIRQDRAGSPKSVAAVGHDAKQMLGRTPGNIAAIRPMKDGVIADFFVTEKMLQHFIKQVHSNSFMRPSPRVLVCVPVGATQVERRAIRESAQGAGAREVFLIEEPMAAAIGAGLPVSEATGSMVVDIGGGTTEVAVISLNGVVYSSSVRIGGDRFDEAIINYVRRNYGSLIGEATAERIKHEIGSAYPGDEVREIEVRGRNLAEGVPRGFTLNSNEILEALQEPLTGIVSAVMVALEQCPPELASDISERGMVLTGGGALLRNLDRLLMEETGIPVVVAEDPLTCVARGGGKALEMIDMHGGDLFSEE
# B2: unnamed (parent)
# chain 1: B1 chain 1
# chain 2: MFEPMELTNDAVIKVIGVGGGGGNAVEHMVRERIEGVEFFAVNTDAQALRKTAVGQTIQIGSGITKGLGAGANPEVGRNAADEDRDALRAALEGADMVFIAAGMGGGTGTGAAPVVAEVAKDLGILTVAVVTKPFNFEGKKRMAFAEQGITELSKHVDSLITIPNDKLLKVLGRGISLLDAFGAANDVLKGAVQGIAELITRPGLMNVDFADVRTVMSEMGYAMMGSGVASGEDRAEEAAEMAISSPLLEDIDLSGARGVLVNITAGFDLRLDEFETVGNTIRAFASDNATVVIGTSLDPDMNDELRVTVVATGIGMDKRPEITLVTNKQVQQPVMDRYQQHGMAPLTQEQKPVAKVVNDNAPQTAKEPDYLDIPAFLRKQAD
# B3: α-FtsZ fusion protein (wild-type E. coli FtsZ) [E. coli] / α-FtsZ fusion protein (wild-type E. coli FtsZ) [E. coli] (parent)
# chain 1: B2 chain 2
# chain 2: B2 chain 2
# Variants of: B1
# Assay: bacterial two-hybrid β-galactosidase assay
# Settings: with partner chain of the complex shown; 100 μM IPTG; parent: 310; read off a plot
row,Variant,response [Miller Units]
1,chain 1 R15C,130
2,chain 1 F65S,330

# Variants of: B2
# Assay: bacterial two-hybrid β-galactosidase assay
# Settings: with partner chain of the complex shown; 25 μM IPTG; parent: 1.5e+03; read off a plot
row,Variant,response [Miller Units]
1,chain 1 R15C,1300
2,chain 1 F65S,75

# Same assay, conditions: with partner chain of the complex shown; 100 μM IPTG; parent: 2e+03; read off a plot
row,Variant,response [Miller Units]
1,chain 2 F182S,260
2,chain 2 L179R,250

# Variants of: B3
# Assay: bacterial two-hybrid β-galactosidase assay
# Settings: with α-FtsZ fusion protein (wild-type E. coli FtsZ) [E. coli]; 100 μM IPTG; parent: 320; read off a plot
row,Variant,response [Miller Units]
1,chain 1 L179R,250
2,chain 1 F182S,260
